Experimental data as given in article PMC10191176 (Nature immunology, 2022).
Substitutions are numbered along the chain they refer to. Numbers in names are those of the source.

How the values were obtained:
[1] = molecular target: HLA-DR4 (DRA*0101/DRB1*0401) with the linked p24 HIV Gag peptide 164-183 (HLA-DR4^HIV) (human | HIV); assay: SPR
[2] = molecular target: HLA-DR4 loaded with CLIP peptide (UniProt P04233); assay: SPR
SEC-MALS = molecular target: the molecule itself; assay: SEC-MALS
[3] = molecular target: T1, yeast-displayed FGL1^FD Y244A/E245A (human, UniProt Q08830 58-312, Y244A | E245A); assay: flow cytometry on cells
T1 sequence (looked up): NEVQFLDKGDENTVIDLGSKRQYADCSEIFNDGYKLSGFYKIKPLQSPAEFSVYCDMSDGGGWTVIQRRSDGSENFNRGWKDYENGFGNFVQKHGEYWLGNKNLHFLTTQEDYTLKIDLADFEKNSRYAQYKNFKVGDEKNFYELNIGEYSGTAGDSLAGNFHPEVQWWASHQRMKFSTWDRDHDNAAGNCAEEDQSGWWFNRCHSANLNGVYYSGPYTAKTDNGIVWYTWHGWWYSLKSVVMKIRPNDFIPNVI

[4] = molecular target: T2, yeast-displayed FGL1^FD E250A/E251A/D252A (human, UniProt Q08830 58-312, E250A | E251A | D252A); assay: flow cytometry on cells
T2 sequence (looked up): T1 sequence (looked up) with A187Y, A188E, E193A, E194A, D195A

HLA-DR4 loaded with CLIP peptide, sequence (P04233 whole entry, looked up, tested part not stated): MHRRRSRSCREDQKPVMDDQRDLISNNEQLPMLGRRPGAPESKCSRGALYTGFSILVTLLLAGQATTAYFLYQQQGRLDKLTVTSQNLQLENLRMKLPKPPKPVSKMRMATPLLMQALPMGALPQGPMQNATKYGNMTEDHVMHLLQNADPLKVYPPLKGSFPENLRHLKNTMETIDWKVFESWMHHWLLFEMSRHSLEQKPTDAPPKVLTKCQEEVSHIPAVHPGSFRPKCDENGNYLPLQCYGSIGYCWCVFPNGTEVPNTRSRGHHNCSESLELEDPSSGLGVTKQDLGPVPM

Q: With “hLAG3* (human LAG3 extracellular domain with the M171I mutation) (from UniProt P18627 23-450) (domain or fragment)” as the molecule, how does the Kd [1] read?
A: 5.2 µM

Q: What about the Kd [2] of the same molecule?
A: 2.45 µM

B1: murine LAG3 extracellular domain (mLAG3, residues 23-442) (domain or fragment, mouse, UniProt Q61790 23-442, looked up)
chain: SGPGKELPVVWAQEGAPVHLPCSLKSPNLDPNFLRRGGVIWQHQPDSGQPTPIPALDLHQGMPSPRQPAPGRYTVLSVAPGGLRSGRQPLHPHVQLEERGLQRGDFSLWLRPALRTDAGEYHATVRLPNRALSCSLRLRVGQASMIASPSGVLKLSDWVLLNCSFSRPDRPVSVHWFQGQNRVPVYNSPRHFLAETFLLLPQVSPLDSGTWGCVLTYRDGFNVSITYNLKVLGLEPVAPLTVYAAEGSRVELPCHLPPGVGTPSLLIAKWTPPGGGPELPVAGKSGNFTLHLEAVGLAQAGTYTCSIHLQGQQLNATVTLAVITVTPKSFGLPGSRGKLLCEVTPASGKERFVWRPLNNLSRSCPGPVLEIQEARLLAERWQCQLYEGQRLLGATVYAAESSSGAHSARRISGDLKGGHL
Q: Which “stoichiometry N” value (SEC-MALS) does the source give for B1 here?
A: 2

B2: hLAG3* (human LAG3 extracellular domain with the M171I mutation) (domain or fragment, UniProt P18627 23-450, looked up)
chain: LQPGAEVPVVWAQEGAPAQLPCSPTIPLQDLSLLRRAGVTWQHQPDSGPPAAAPGHPLAPGPHPAAPSSWGPRPRRYTVLSVGPGGLRSGRLPLQPRVQLDERGRQRGDFSLWLRPARRADAGEYRAAVHLRDRALSCRLRLRLGQASITASPPGSLRASDWVILNCSFSRPDRPASVHWFRNRGQGRVPVRESPHHHLAESFLFLPQVSPMDSGPWGCILTYRDGFNVSIMYNLTVLGLEPPTPLTVYAGAGSRVGLPCRLPAGVGTRSFLTAKWTPPGGGPDLLVTGDNGDFTLRLEDVSQAQAGTYTCHIHLQEQQLNATVTLAIITVTPKSFGSPGSLGKLLCEVTPVSGQERFVWSSLDTPSQRSFSGPWLEAQEAQLLSQPWQCQLYQGERLLGAAVYFTELSSPGAQRSGRAPGALPAGHL
modifications: biotin on the BAP tag (BirA ligase) in binding experiments
Q: B2 was tested. Which “reduction of binding relative to wild-type FGL1^FD” value [3] did it give?
A: 75%

Q: What about the “reduction of binding relative to wild-type FGL1^FD” value [4] of the same molecule?
A: 80%
